Laboratory results as given in patent US6025146A, “Identification of M-CSF agonists and antagonists” (Chiron Corporation, priority 1995, dated 2000).
Changes are numbered by the printed parent chain. Names may count otherwise.

B1: Chinese hamster ovary cell (CHO)-expressed M-CSF: "naturally refolded" M-CSF expressed in Chinese hamster ovary cells (protein, UniProt P09603 33-554, looked up)
Macrophage colony-stimulating …: EEVSEYCSHMIGSGHLQSLQRLIDSQMETSCQITFEFVDQEQLKDPVCYLKKAFLLVQDIMEDTMRFRDNTPNAIAIVQLQELSLRLKSCFTKDYEEHDKACVRTFYETPLQLLEKVKNVFNETKNLLDKDWNIFSKNCNNSFAECSSQDVVTKPDCNCLYPKAIPSSDPASVSPHQPLAPSMAPVAGLTWEDSEGTEGSSLLPGEQPLHTVDPGSAKQRPPRSTCQSFEPPETPVVKDSTIGGSPQPRPSVGAFNPGMEDILDSAMGTNWVPEEASGEASEIPVPQGTELSPSRPGGGSMQTEPARPSNFLSASSPLPASAKGQQPADVTGTALPRVGPVRPTGQDWNHTPQKTDHPSALLRDPPEPGSPRISSLRPQGLSNPSTLSAQPQLSRSHSSGSVLPLGELEGRRSTRDRRSPAEPEGGPASEGAARPLPRFNSVPLTDTGHERQSEGSFSPQLQESVFHLLVPSVILVLLAVGGLLFYRWRRRSHQEPQRADSPLEQPEGSPLTQDDRQVELPV
B2: Q20A, V78K: double mutant of M-CSF altering solvent accessible residues in the central portion of helices A and C (protein, UniProt P09603 33-554, looked up, variant Q20A V78K)
Macrophage colony-stimulating …: B1 Macrophage colony-stimulating … with Q20A, V78K

Columns and labels:
[1] = test system: NFS-60 cells; assay: Antibody neutralization of M-CSF dimers by 5H410 Mab in the NFS-60 bioassay; format: cell-based; settings: serial dilution neutralization experiments
Procedure: Fractionated products were analyzed on reducing SDS-PAGE and stained with Coomassie, according to the method of Laemmli, Nature […] 227:680-685 (1970). Biological activity was determined using the M-CSF dependent NFS-60 bioassay (See Example 10 below). Antibody neutralization experiments were carried out by pre-incubating approximately 5,000 units of M-CSF dimer with varying dilutions of the neutralizing M-CSF 5H410 Mab (made to refolded E. coli CΔ 150 M-CSFα dimer) prior to bioassay. (Halenbeck et al, Bio/Technology 7:710 (1989)
The biological activity of all three dimer species was neutralized to the same extent in serial dilution neutralization experiments using the 5H410 M-CSF Mab in the NFS-60 bioassay.

[2] = test system: NFS-60 cells; assay: M-CSF dependent NFS-60 bioassay (MTT read-out); format: cell-based
Procedure: Fractionated products were analyzed on reducing SDS-PAGE and stained with Coomassie, according to the method of Laemmli, Nature […] 227:680-685 (1970). Biological activity was determined using the M-CSF dependent NFS-60 bioassay (See Example 10 below). […] (Halenbeck et al, Bio/Technology 7:710 (1989)
The purified mutein dimers were subjected to bioassay using NFS-60 cells which is an M-CSF dependent cell line which forms colonies in the presence of active M-CSF. Standards and purified mutein samples were serially diluted 1:2 in RPMI media (10% fetal bovine serum) in a 50 microliter volume in 96-well microtiter plates. […] Plates were incubated at 37° C., 5% CO2 for 44 h. 5 mg/ml MTT dye was added to each sample and incubation continued for 4 h. 20% SDS was added to each sample. The plates were wrapped in foil and left overnight. The absorbance of each sample was read at 570 nm and compared to a standard of known M-CSF concentration.

[3] = test system: cell surface M-CSF receptor (NFS60 cell M-CSF receptors); assay: NFS-60 receptor competition assay: displacement of 125I-M-CSF by radioligand displacement; format: binding
Procedure: FIG. 7 illustrates the competitive binding of M-CSF and M-CSF muteins to NFS60 cell M-CSF receptors.
The plates were incubated at 4° C. for 20 hours and the cells were collected on glass-fiber filters. Maximum binding was measured in the absence of unlabeled M-CSF and non-specific binding was measured in the presence of 1000-fold greater concentration of unlabeled M-CSF (compared to labeled M-CSF). […] Results are expressed as percent displacement of radioactive M-CSF versus mutein concentration (FIG. 7).

Molecule | neutralization of biological activity by 5H410 M-CSF Mab [1] | specific activity ([2]; purified refolded dimers, compared to a standard of known M-CSF concentration) | fold reduction in biological (specific) activity compared to parental M-CSF ([2]; relative to parental reference (homodimer or heterodimer)) | M-CSF receptor-binding ability (in words) [3] | fold increase in IC50 / decrease in binding affinity compared to M-CSFα NΔ3CΔ158 ([3]; relative to IC50 of about 17 pM for 158)
B1 | neutralizes |  |  |  | 
B2 |  | 1.4×10^7 U/mg | 8-10 fold | decreased | 5 fold
